# Assay results from patent publication US20050049403A1 (CAMBRIDGE ANTIBODY TECHNOLOGY, published 2005).
# T1: recombinant human TGFβ2 (human, UniProt P61812 303-414)
# T1 sequence (looked up): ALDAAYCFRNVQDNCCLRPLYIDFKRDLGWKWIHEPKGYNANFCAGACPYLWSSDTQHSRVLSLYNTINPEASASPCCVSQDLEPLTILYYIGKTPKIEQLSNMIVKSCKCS
# T2: chicken egg white trypsin inhibitor (chicken, UniProt P01005 25-210)
# T2 sequence (looked up): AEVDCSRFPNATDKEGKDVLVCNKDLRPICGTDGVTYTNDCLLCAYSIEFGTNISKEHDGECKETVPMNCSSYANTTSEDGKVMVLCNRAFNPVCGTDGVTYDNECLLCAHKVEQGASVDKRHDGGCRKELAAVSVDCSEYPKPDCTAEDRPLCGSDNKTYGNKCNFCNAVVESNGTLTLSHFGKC
# T3: phage peptide display Clone 2 (DPMDMVLKLC)
# T3 peptide: DPMDMVLKLC
# T4: phage peptide display Clone 3 (WSEFMRQSSL)
# T4 peptide: WSEFMRQSSL
# T5: phage peptide display Clone 1 (RQLSLQQRMH)
# T5 peptide: RQLSLQQRMH
# T6: phage peptide display clone VESTSLQFRG (fourth clone, printed as Clone 3)
# T6 construct: also called Clone 3 (second of that label)
# T6 peptide: VESTSLQFRG
# B1: 6B1 IgG4 (antibody, V domains shown)
# VH: EVQLVESGGGVVQPGRSLRLSCAASGFTFSSYGMHWVRQAPGKGLEWVAVIWYDGSNKYYADSVKGRFTISRDNSKNTLYLQMDSLRAEDTAVYYCGRTLESSLWGQGTLVTVSS
# VL: SSELTQDPAVSVALGQTVRITCQGDSLRSYYASWYQQKPGQAPVLVIYGKNNRPSGIPDRFSGSSSGNTASLTITGAQAEDEADYYCNSRDSSSTHRGVFGGGTKLTVLG
# notes: Whole antibody: human gamma 4 and human lambda constant regions; FITC-labelled in the human tissue study; also called antibody 6B1
# Tests used:
# recombinant human TGFβ2 [1] = molecular target: T1, recombinant human TGFβ2; experiment: cell-based or functional assay
# recombinant human TGFβ2 [2] = molecular target: T1, recombinant human TGFβ2; experiment: radioreceptor assay, inhibition of 125I-TGFβ2 binding to A549 cells; concentration of antibody combining sites
# How it was run: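 125I-TGFβ1 or β2 (20 pM in preincubation mix) preincubated with antibody 1 h at RT in DMEM/F12 + 0.1% BSA, then added to serum-starved A549 monolayers for 1–2 h at 37 °C. Bound 125I gamma-counted after washing and detergent solubilisation; TGFβ-only wells as controls.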
# [3] = molecular target: T2, chicken egg white trypsin inhibitor; experiment: ELISA, antigen coated at 10 µg/ml, anti-human Fc alkaline phosphatase conjugate, OD405 nm [a]
# Procedure: For both FIG. 13(a) and FIG. 13(b), antigens 1 to 15 were used for coating the plate at a concentration of 10 μg/ml in PBS. The TGFbetas were coated at 0.2 μg/ml in PBS. Coating was performed at 4° C. overnight. […] of each antigen was used per well and duplicates of each antigen for each IgG to be tested. IgG samples were incubated with the coated antigens at 37° C. for 2 hours after blocking with 2%. marvel-PBS. The labelled second antibody was a mouse anti-human Fc1 alkaline phosphatase conjugated and the substrate used to detect bound second antibody was PNPP at 1 mg/ml with the absorbance read at 405 nm.
# [4] = molecular target: T3, phage peptide display Clone 2 …; experiment: phage ELISA on coated 6B1 IgG4 after four rounds of panning
# Procedure: (§1) Purified 6B1 IgG4 antibody at 10 μg/ml in 4 ml of PBS was coated onto a plastic tube (Nunc; maxisorp) by incubating overnight at 4° C. After washing and blocking with MPBS (see Example 1) an aliquot of the peptide library containing 5×10¹³ phage in 4 ml 3% MPBS was added to the tube and incubated at room temperature for 1.5 hours. The tube was washed 10 times with PBST(0.1%), then 10 times with PBS. Bound phage particles were eluted from the tube by adding 4 ml of 100 mM triethylamine and incubating the tube stationary for 10 minutes at room temperature. The eluted phage were then added to a tube containing 2 ml 1M-Tris.HCl (pH7.4) and 10 ml 2YT broth. The phage were then added to 20ml of logarithmically growing E. coli TG1 cells and grown for 1 hour shaking at 100 rpm at 37° C. The infected cells were then plated on 2YT agar medium with 15 μg/ml tetracycline in 243 mm×243 mm dishes (Nunc). Plates were incubated at 30° C. for 18 hours. Colonies were scraped off the plates into 10 ml 2TY broth containing 15% (v/v) glycerol for storage at −70° C.
# (§2) These clones were screened for clones that bound specifically to the antibody 6B1 in ELISA. Cells from the master plates were used to inoculate 96 well tissue culture plates containing 100 μl 2YT broth (containing 15 μg/ml tetracycline) per well and grown overnight with gentle shaking at 100 rpm at 30° C. The plates were then centrifuged at 2000 rpm. The 100 μl phage supernatants from each well were recovered and each was mixed with 100 μl of 4% skimmed milk powder in 2×PBS. 100 μl of each of these was then assayed by phage ELISA. Purified 6B1 IgG4 antibody at 10 μg/ml in PBS was coated onto flexible microtitre plates by incubating overnight at 4° C. Control plates coated with an irrelevant IgG4 antibody at 10 μg/ml were also prepared. The ELISAs were performed as described in Example 1, and visualised with the chromagenic substrate pNPP (Sigma).
# [5] = molecular target: T4, phage peptide display Clone 3 …; experiment: as above
# Procedure: as §1, §2
# [6] = molecular target: T5, phage peptide display Clone 1 …; experiment: as above
# Procedure: as §1, §2
# [7] = molecular target: T6, phage peptide display clone VESTSLQFRG …; experiment: as above
# Procedure: as §1, §2
binder,measurement,setting,value
B1,I.C.50 in TF1 assay (neutralisation of TGFβ2 inhibition of TF1 cell proliferation),recombinant human TGFβ2 [1],11 nM
same,IC50,recombinant human TGFβ2 [2],0.6 nM
same,binding result,[3],no binding
same,binding result,[4],binds
same,binding result,[5],binds
same,binding result,[6],binds
same,binding result,[7],binds
